B1: Flag-PLK4 wt (polo-like kinase 4), full-length [human] / CEP192, endogenous [human (endogenous in HEK293T)] (parent complex)
chain 1: MATCIGEKIEDFKVGNLLGKGSFAGVYRAESIHTGLEVAIKMIDKKAMYKAGMVQRVQNEVKIHCQLKHPSILELYNYFEDSNYVYLVLEMCHNGEMNRYLKNRVKPFSENEARHFMHQIITGMLYLHSHGILHRDLTLSNLLLTRNMNIKIADFGLATQLKMPHEKHYTLCGTPNYISPEIATRSAHGLESDVWSLGCMFYTLLIGRPPFDTDTVKNTLNKVVLADYEMPSFLSIEAKDLIHQLLRRNPADRLSLSSVLDHPFMSRNSSTKSKDLGTVEDSIDSGHATISTAITASSSTSISGSLFDKRRLLIGQPLPNKMTVFPKNKSSTDFSSSGDGNSFYTQWGNQETSNSGRGRVIQDAEERPHSRYLRRAYSSDRSGTSNSQSQAKTYTMERCHSAEMLSVSKRSGGGENEERYSPTDNNANIFNFFKEKTSSSSGSFERPDNNQALSNHLCPGKTPFPFADPTPQTETVQQWFGNLQINAHLRKTTEYDSISPNRDFQGHPDLQKDTSKNAWTDTKVKKNSDASDNAHSVKQQNTMKYMTALHSKPEIIQQECVFGSDPLSEQSKTRGMEPPWGYQNRTLRSITSPLVAHRLKPIRQKTKKAVVSILDSEEVCVELVKEYASQEYVKEVLQISSDGNTITIYYPNGGRGFPLADRPPSPTDNISRYSFDNLPEKYWRKYQYASRFVQLVRSKSPKITYFTRYAKCILMENSPGADFEVWFYDGVKIHKTEDFIQVIEKTGKSYTLKSESEVNSLKEEIKMYMDHANEGHRICLALESIISEEERKTRSAPFFPIIIGRKPGSTSSPKALSPPPSVDSNYPTRERASFNRMVMHSAASPTQAPILNPSMVTNEGLGLTTTASGTDISSNSLKDCLPKSAQLLKSVFVKNVGWATQLTSGAVWVQFNDGSQLVVQAGVSSISYTSPNGQTTRYGENEKLPDYIKQKLQCLSSILLMFSNPTPNFH
chain 2: MEDFRGIAEESFPSFLTNSLFGNSGILENVTLSSNLGLPVAVSTLARDRSSTDNRYPDIQASYLVEGRFSVPSGSSPGSQSDAEPRERLQLSFQDDDSISRKKSYVESQRLSNALSKQSALQMETAGPEEEPAGATESLQGQDLFNRASPLEQAQDSPIDFHLQSWMNNKEPKIVVLDAGKHFEDKTLKSDLSHTSLLENEKLILPTSLEDSSDDDIDDEMFYDDHLEAYFEQLAIPGMIYEDLEGPEPPEKGFKLPTNGLRQANENGSLNCKFQSENNSSLISLDSHSSETTHKESEESQVICLPGTSNSIGTGDSRRYTDGMLPFSSGTWGTEKEIENLKGIVPDLNSECASKDVLVKTLRAIDVKLNSDNFHDANANRGGFDLTDPVKQGAECPHQNKTVLHMDGCLDTETPTVSIQENVDVASLKPISDSGINFTDAIWSPTCERRTCECHESIEKNKDKTDLPQSVVYQNEEGRWVTDLAYYTSFNSKQNLNVSLSDEMNEDFRSGSEAFDLIAQDEEEFNKEHQFIQEENIDAHNTSVALGDTSWGATINYSLLRKSRSTSDLDKDDASYLRLSLGEFFAQRSEALGCLGGGNNVKRPSFGYFIRSPEKREPIALIRKSDVSRGNLEKEMAHLNHDLYSGDLNEQSQAQLSEGSITLQVEAVESTSQVDENDVTLTADKGKTEDTFFMSNKPQRYKDKLPDSGDSMLRISTIASAIAEASVNTDPSQLAAMIKALSNKTRDKTFQEDEKQKDYSHVRHFLPNDLEKSNGSNALDMEKYLKKTEVSRYESALENFSRASMSDTWDLSLPKEQTTQDIHPVDLSATSVSVRAPEENTAAIVYVENGESENQESFRTINSSNSVTNRENNSAVVDVKTCSIDNKLQDVGNDEKATSISTPSDSYSSVRNPRITSLCLLKDCEEIRDNRENQRQNECVSEISNSEKHVTFENHRIVSPKNSDLKNTSPEHGGRGSEDEQESFRPSTSPLSHSSPSEISGTSSSGCALESFGSAAQQQQPPCEQELSPLVCSPAGVSRLTYVSEPESSYPTTATDDALEDRKSDITSELSTTIIQGSPAALEERAMEKLREKVPFQNRGKGTLSSIIQNNSDTRKATETTSLSSKPEYVKPDFRWSKDPSSKSGNLLETSEVGWTSNPEELDPIRLALLGKSGLSCQVGSATSHPVSCQEPIDEDQRISPKDKSTAGREFSGQVSHQTTSENQCTPIPSSTVHSSVADMQNMPAAVHALLTQPSLSAAPFAQRYLGTLPSTGSTTLPQCHAGNATVCGFSGGLPYPAVAGEPVQNSVAVGICLGSNIGSGWMGTSSLCNPYSNTLNQNLLSTTKPFPVPSVGTNCGIEPWDSGVTSGLGSVRVPEELKLPHACCVGIASQTLLSVLNPTDRWLQVSIGVLSISVNGEKVDLSTYRCLVFKNKAIIRPHATEEIKVLFIPSSPGVFRCTFSVASWPCSTDAETIVQAEALASTVTLTAIAESPVIEVETEKKDVLDFGDLTYGGWKALPLKLINRTHATVPIRLIINANAVAWRCFTFSKESVRAPVEVAPCADVVTRLAGPSVVNHMMPASYDGQDPEFLMIWVLFHSPKKQISSSDILDSAEEFSAKVDIEVDSPNPTPVLRSVSLRARAGIARIHAPRDLQTMHFLAKVASSRKQHLPLKNAGNIEVYLDIKVPEQGSHFSVDPKNLLLKPGEEHEVIVSFTPKDPEACEERILKIFVQPFGPQYEVVLKGEVISSGSKPLSPGPCLDIPSILSNKQFLAWGGVPLGRTQLQKLALRNNSASTTQHLRLLIRGQDQDCFQLQNTFGSEQRLTSNCEIRIHPKEDIFISVLFAPTRLSCMLARLEIKQLGNRSQPGIKFTIPLSGYGGTSNLILEGVKKLSDSYMVTVNGLVPGKESKIVFSVRNTGSRAAFVKAVGFKDSQKKVLLDPKVLRIFPDKFVLKERTQENVTLIYNPSDRGINNKTATELSTVYLFGGDEISRQQYRRALLHKPEMIKQILPEHSVLQNINFVEAFQDELLVTEVYDLPQRPNDVQLFYGSMCKIILSVIGEFRDCISSREFLQPSSKASLESTSDLGASGKHGGNVSLDVLPVKGPQGSPLLSRAARPPLDQLASEEPWTVLPEHLILVAPSPCDMAKTGRFQIVNNSVRLLRFELCWPAHCLTVTPQHGCVAPESKLQILVSPNSSLSTKQSMFPWSGLIYIHCDDGQKKIVKVQIREDLTQVELLTRLTSKPFGILSPVSEPSVSHLVKPMTKPPSTKVEIRNKSITFPTTEPGETSESCLELENHGTTDVKWHLSSLAPPYVKGVDESGDVFRATYAAFRCSPISGLLESHGIQKVSITFLPRGRGDYAQFWDVECHPLKEPHMKHTLRFQLSGQSIEAENEPENACLSTDSLIKIDHLVKPRRQAVSEASARIPEQLDVTARGVYAPEDVYRFRPTSVGESRTLKVNLRNNSFITHSLKFLSPREPFYVKHSKYSLRAQHYINMPVQFKPKSAGKFEALLVIQTDEGKSIAIRLIGEALGKN
B2: Flag-PLK4 wt (polo-like kinase 4), full-length [human] / DCAF1 (VprBP), endogenous [human (endogenous in HEK293T)] (parent complex)
chain 1: B1 chain 1
chain 2: not shown
B3: Flag-PLK4 wt (polo-like kinase 4), full-length [human] / CEP152, endogenous [human (endogenous in HEK293T)] (parent complex)
chain 1: B1 chain 1
chain 2: MSLDFGSVALPVQNEDEEYDEEDYEREKELQQLLTDLPHDMLDDDLSSPELQYSDCSEDGTDGQPHHPEQLEMSWNEQMLPKSQSVNGYNEIQSLYAGEKCGNVWEENRSKTEDRHPVYHPEEGGDEGGSGYSPPSKCEQTDLYHLPENFRPYTNGQKQEFNNQATNVIKFSDPQWNHFQGPSCQGLEPYNKVTYKPYQSSAQNNGSPAQEITGSDTFEGLQQQFLGANENSAENMQIIQLQVLNKAKERQLENLIEKLNESERQIRYLNHQLVIIKDEKDGLTLSLRESQKLFQNGKEREIQLEAQIKALETQIQALKVNEEQMIKKSRTTEMALESLKQQLVDLHHSESLQRAREQHESIVMGLTKKYEEQVLSLQKNLDATVTALKEQEDICSRLKDHVKQLERNQEAIKLEKTEIINKLTRSLEESQKQCAHLLQSGSVQEVAQLQFQLQQAQKAHAMSANMNKALQEELTELKDEISLYESAAKLGIHPSDSEGELNIELTESYVDLGIKKVNWKKSKVTSIVQEEDPNEELSKDEFILKLKAEVQRLLGSNSMKRHLVSQLQNDLKDCHKKIEDLHQVKKDEKSIEVETKTDTSEKPKNQLWPESSTSDVVRDDILLLKNEIQVLQQQNQELKETEGKLRNTNQDLCNQMRQMVQDFDHDKQEAVDRCERTYQQHHEAMKTQIRESLLAKHALEKQQLFEAYERTHLQLRSELDKLNKEVTAVQECYLEVCREKDNLELTLRKTTEKEQQTQEKIKEKLIQQLEKEWQSKLDQTIKAMKKKTLDCGSQTDQVTTSDVISKKEMAIMIEEQKCTIQQNLEQEKDIAIKGAMKKLEIELELKHCENITKQVEIAVQNAHQRWLGELPELAEYQALVKAEQKKWEEQHEVSVNKRISFAVSEAKEKWKSELENMRKNILPGKELEEKIHSLQKELELKNEEVPVVIRAELAKARSEWNKEKQEEIHRIQEQNEQDYRQFLDDHRNKINEVLAAAKEDFMKQKTELLLQKETELQTCLDQSRREWTMQEAKRIQLEIYQYEEDILTVLGVLLSDTQKEHISDSEDKQLLEIMSTCSSKWMSVQYFEKLKGCIQKAFQDTLPLLVENADPEWKKRNMAELSKDSASQGTGQGDPGPAAGHHAQPLALQATEAEADKKKVLEIKDLCCGHCFQELEKAKQECQDLKGKLEKCCRHLQHLERKHKAVVEKIGEENNKVVEELIEENNDMKNKLEELQTLCKTPPRSLSAGAIENACLPCSGGALEELRGQYIKAVKKIKCDMLRYIQESKERAAEMVKAEVLRERQETARKMRKYYLICLQQILQDDGKEGAEKKIMNAASKLATMAKLLETPISSKSQSKTTQSALPLTSEMLIAVKKSKRNDVNQKIPCCIESKSNSVNTITRTLCEQAPKRRAACNLQRLLENSEHQSIKHVGSKETHLEFQFGDGSCKHLNSLPRNVSPEFVPCEGEGGFGLHKKKDLLSDNGSESLPHSAAYPFLGTLGNKPSPRCTPGPSESGCMHITFRDSNERLGLKVYKCNPLMESENAASEKSQGLDVQEPPVKDGGDLSDCLGWPSSSATLSFDSREASFVHGRPQGTLEIPSESVKSKQFSPSGYLSDTEESNMICQTMKCQRYQTPYLSEETTYLEPGKISVNCGHPSRHKADRLKSDFKKLSSTLPSSVCQQPSRKLIVPLSSQQDSGFDSPFVNLD

Variants of: B1
Test: co-immunoprecipitation (IP against Flag tag, Western blot quantification); HEK293T cells, 48 h overexpression, N = 3; read off a plot

Point of comparison: chain 1 K608A, ratio to parent ~0.1. Against it:
- chain 1 R691A — higher, ~1.5
- chain 1 I602E — lower, ~0.01
- chain 1 K699A — the same, ~0.1

Variants of: B2
Test: as above

Point of comparison: chain 1 K699A, ratio to parent ~0. Against it:
- chain 1 K608A — the same, ~0
- chain 1 I602E — higher, ~0.01
- chain 1 R691A — higher, ~0.05

Variants of: B2
Test: as above
Remark: another data set of the same source

Point of comparison: chain 1 S285A, chain 1 T289A, ratio to parent ~0.58. Against it:
- chain 1 K41R — higher, ~0.79

Variants of: B2
Test: as above
Remark: another data set of the same source

Point of comparison: chain 1 K753A, ratio to parent ~1.6. Against it:
- chain 1 K748A — lower, ~1.5

Variants of: B3
Test: as above

Point of comparison: chain 1 R691A, ratio to parent ~0.83. Against it:
- chain 1 K608A — lower, ~0.16
- chain 1 K699A — lower, ~0.09
- chain 1 I602E — lower, ~0.03
